Experimental data: patent US20190309034A1 (Boehringer Ingelheim, published 2019)
Where a chain is given by its changes, count along the chain named.

B1: 1002E8A6 (antibody, V domains shown)
VH: EVQLQQSGPELVKPGASVKMSCKASGYTITSYVMHWVKQKPGQGLEWIGYINPNNDGTKYNEKFKGKATLTSDKSSNTAYMELSSLTSEDSAVYYCARGDYSNYFYWYFDVWGAGTTVTVSS
VL: DIKMTQSPSSMYASLGERVTITCKASQDINSYLTWFQQKPGKSPETLIYRANRLVSGVPSRFSGSGSGQDYSLTISSLEYEDMGIYSCLQYDEFPYTFGGGTKLEIK
B2: 352G11A10 (antibody, V domains shown)
VH: QVQLQQSGPELVKPGGSVRISCKASGYSLISYYIHWVKQRPGQGLEWIGLTFPGSGNSKFIEKFKGKATLTADTSSNTAYIQLSSLTSEDSAVYYCTRGDFGNYLAYWYFDVWGTGTTVTVSS
VL: DIKMTQSPSSIYASLGERVTITCKASQDIHSYLSWFQQKPGKSPKTLMYRTNRLVDGVPSRFSGSGSGQDYSLTIRSLEYEDMGNYYCLQYDEFPYTFGGGAKLEVK
B3: 1094C4E6 (antibody, V domains shown)
VH: EVQLQQSGAELVRPGASVKLSCTASGFNIKDDYMHWVKQTPEQGLEWIGRIDPAYGNGKYVPKFQDKATITADTSSNTAYLQLSSLTSEDTAVYYCARRYYAVSSVDYALDYWGQGTSVTVSS
VL: DIVMTQSHKFMSTSVGDRVTITCKASQDVATAVAWYQQKPGQSPKLLIYWASTRHTGVPDRFTGSGSGTDFTLTISNVQSEDLANYFCQQYSNYPYTFGGGTTLEIK
B4: 1070A6B7 (antibody, V domains shown)
VH: QVPLQQPGAEMVRPGASMRLSCKASGYTFPGYWMHWVKQRPRQGLEWIAKIDPSDSETHYNQNFKDKATLTVDKYSNTVYMQLNSLTSEDSAVYYCANEGWDSLTKVWFGWWGQGTLVTVSA
VL: DVVMTQTPLSLPVSLGDQASISCRCSQSLVHSNGNTYLHWYLQKPGQSPKLLIYKVSDRFSGVPDRFSGSGSGTDFTLRISRVEADDLGVYFCSQSTHVPLTFGAGTKLELK
B5: 344B9D9 (antibody, V domains shown)
VH: EFQLQQSGPELGEPGASVKISCKASGFSFSDYNINWVKQSNGKSLEWIGKVHPKDGTATYNQKFQDKATLTLDQSSSTAYMQLSSLTSEDSAVYYCLPLYYDSLTKILFAYWGQGTLVTVSA
VL: DIQMTQSPASLSASVGETVTITCRASGNIHNYLAWYQQKQGKSPQLLVYSAITLADGVPSRFSGSGSETQFSLKINSLQPEDFGIYYCQHFWNTPYTFGGGTKLEIK
B6: 210D9B8 (antibody, V domains shown)
VH: QVQLQQPGTEFVKPGASVKLSCEASGYTFITYWMHWVKQRPGRGLEWIGGIDPNSGVIKYNEKFKSKATLTVDKPSSTAYMQLSSLTSEDSAVYYCARGEDLLIRTDAMDYWGQGTSVTVSS
VL: DIVMTQSQKFVSTTLGDRVSITCKASQSVGIAVAWYQQKPGHSPNLLIFSTSNRYTGVPDRFTGSGSGTDFTLTISDVQSEDLADYFCQQYSRYPRTFGGGTKLEIK
notes: Mouse lead antibody (hybridoma)
B7: 363D4A10 (antibody, V domains shown)
VH: QVTLKESGPGILQSSQTLSLTCSFSGFSLKTFGMGVGWIRQPSGKGLEWLAHIWWNDDKFYHPALKSRLTISKDTSKNQVFLKIANVDTAETATYYCVRIGPSITTVAEGFAYWGQGTLVTVSA
VL: DIVMTQSQKFMSTTVGDRVTITCKASQNVGSAVVWYQQKPGQSPILLIFSASNRYTGVPDRITGSGSGAEFTLTISSVQSEDLAEYFCQQYSSYPLTFGAGTKLELK
B8: 332C1B12 (antibody, V domains shown)
VH: QVQLQQPGAELVKPGASVKLSCKASGYTFTNDNYWMNWMKQRPGRGLEWIGRIRPSDSETHYNQKFTNKATLTVDKSSSTAYIQLSSLTSVDSAVYYCARSWEDLLLRSMEDYFDYWGQGTTLTVSS
VL: DIVLTQSPASLPVSLGQRATISCRASKGVSTSSYTFIHWYQQKPGQPPKLLIKYASNLESGVPARFSGSGSGTDFTLNIHPVEEEDVATYYCQHSREFPRTFGGGTKLEIK
B9: 323E9D1 (antibody, V domains shown)
VH: QVTLKESGPGILQPSQTLSLTCSFSGFSMRTFGMGVGWIRQPSGKGLEWLAHIWWNDEKYYNPDLKSRLTVSKDSSKNQVFLTIANVDTSDTAPYYCTRVGPSISTIAEGFPYWGQGTLVTVSA
VL: DIVMTQSQKFVSTRVGDRVSITCKASQNVGAAVVWYQQKSGQPPKLLIRSASNRYIGVPDRFTGSGSGTDFTLTVSDVQSGDLADYFCQQYSNYPLTFGAGTKLELT
B10: 348A6C1 (antibody, V domains shown)
VH: B9 VH with K5R, M29L, D64A, K77E, T83K, S90T, T98A, V100L, S105T, I107V
VL: DIVMTQSQKFMSTTVGDRVSITCKASQNVGAAVAWYQQKPGQPPKLLIRSASNRYIGVPDRFTGSGSGTDFTLTVSDVQSVDLADYFCQQYSNYPLTFGAGTKLELTR
B11: 206G9A10 (antibody, V domains shown)
VH: QVQLQQPGAELVKPGASVKLSCKASGYTFSIFCIHWVQQRPGRGLEWIGRIDPSSGGTKYNEKFESKATLTVDKSSSTAYMQLSSLTSEDSAVYYCARGEDLLVRTDAMDYWGQGTSVTVSS
VL: DIVMTQSQKFMSTTVGDRVSITCKASQNAGAAVAWFQQKPGQSPKLLIYSASNRYTGVPDRFTGSGSGTDFTLTISNVQSEDLADYICQQYRSYPRTFGGGTKLEIK
notes: as for B6
B12: 227D3B11 (antibody, V domains shown)
VH: B11 VH with T28S, I31T, C33F, V37I, S54N, S75P, Q82H, V104I
VL: B11 VL with F10I, A31I, A32D, G41R, Y49F, A51T, T63A, S76Y, I87F, Q89L
notes: as for B6
B13: 227D5A7 (antibody, V domains shown)
VH: B11 VH with I34V, S88P, M109L, T116S
VL: B11 VL with Y94F
notes: as for B6
B14: 250E5A11 (antibody, V domains shown)
VH: B11 VH with A9T, K63R, S66N, S88F
VL: B11 VL with S76T, Y94F
notes: as for B6
B15: 214G4B7 (antibody, V domains shown)
VH: B11 VH with L11F, T28S, I31T, S54N, V72I, S75P, M81V, Q82H, V104I
VL: B11 VL with A31T, Y49F, A51T, V78M, I87F, Q89L
notes: as for B6
B16: 217H12A7 (antibody, V domains shown)
VH: B11 VH with I31T, C33L, S54N, S66R, A68V, S75P, V104L
VL: B11 VL with A31T, S52F, V78M
notes: as for B6

Assays:
[1] = target: Human membrane-bound BAFF (mbBAFF) (human, UniProt Q9Y275 1-285); test: cell-based or functional assay
[2] = target: T1, Recombinant soluble trimeric human BAFF (furin-cleaved human BAFF 134-285) (human, UniProt Q9Y275 134-285); test: cell-based or functional assay
[3] = target: T2, Recombinant soluble 60-mer human BAFF (His-HuBAFF 134-285) (human, UniProt Q9Y275 134-285); test: cell-based or functional assay
[4] = target: T1, Recombinant soluble trimeric human BAFF …; test: cell-based or functional assay; remark: listed apart in the source
[5] = target: T2, Recombinant soluble 60-mer human BAFF …; test: cell-based or functional assay; remark: listed apart in the source
[6] = target: T1, Recombinant soluble trimeric human BAFF …; test: SPR, antibody captured on Protein A/G, soluble trimeric BAFF flowed over, 1:1 Langmuir global fit, apparent affinity (at detection limit)
Protocol: Apparent binding affinities were evaluated using surface plasmon resonance where the antibodies were captured at different surface densities on a Protein A/G surface. Soluble trimeric BAFF at different concentrations were flowed over the captured antibody. Clinical reference antibodies (Reference 1 comprising SEQ ID NOS: 98 and 116) and Reference 2 comprising SEQ ID NOS: 99 and 117) were used as comparators.

Binder | Potent mbBAFF Neutralization IC50 [1] | Potent mbBAFF Neutralization IC90 [1] | Soluble trimeric huBAFF (50 pM) Neutralization IC50 [2] | Soluble trimeric huBAFF (50 pM) Neutralization IC90 [2] | Soluble 60-mer huBAFF (4 pM) Neutralization IC50 [3] | Soluble 60-mer huBAFF (4 pM) Neutralization IC90 [3] | Soluble trimeric huBAFF (52 pM) Neutralization IC90 [4] | Soluble 60-mer huBAFF (4.2 pM) Neutralization IC90 [5] | Kd [6]
B1 | 141 pM | 2090 pM | 107 pM | 824 pM | 29 pM | 79 pM | – | – | –
B2 | – | – | 99 pM | 444 pM | 21 pM | 90 pM | – | – | –
B3 | 2560 pM | 175000 pM | 384 pM | 1100 pM | 4050 pM | 20900 pM | – | – | –
B4 | 147 pM | 1060 pM | 43 pM | 677 pM | 20 pM | 56 pM | – | – | –
B5 | – | – | 102 pM | 352 pM | 11 pM | 32 pM | – | – | –
B6 | – | – | – | – | – | – | 156 pM | 14 pM | < 0.01 nM
B7 | – | – | 21 pM | 473 pM | 9 pM | 23 pM | – | – | –
B8 | – | – | 99 pM | 457 pM | 12 pM | 40 pM | – | – | –
B9 | – | – | 148 pM | 312 pM | 6 pM | 23 pM | – | – | –
B10 | – | – | 110 pM | 329 pM | 9 pM | 29 pM | – | – | –
B11 | – | – | – | – | – | – | 35.1 pM | 0.2 pM | < 0.01 nM
B12 | – | – | – | – | – | – | 128 pM | 1.6 pM | < 0.01 nM
B13 | – | – | – | – | – | – | 56.8 pM | 0.8 pM | < 0.01 nM
B14 | – | – | – | – | – | – | 97.5 pM | 0.3 pM | < 0.01 nM
B15 | – | – | – | – | – | – | 296 pM | 3 pM | < 0.01 nM
B16 | – | – | – | – | – | – | 129 pM | 13.4 pM | < 0.01 nM
